B1: heparin binding EGF-like growth factor (ligand, UniProt Q99075 63-148, looked up)
chain: DLQEADLDLLRVTLSSKPQALATPNKEEHGKRKKKGKGLGKKRDPCLRKYKDFCIHGECKYVKELRAPSCICHPGYHGERCHGLSL
notes: the other ligands are human recombinant proteins from R&D Systems; also called HB-EGF; Hb-EGF
B2: human recombinant betacellulin (ligand, UniProt P35070 32-111, looked up)
chain: DGNSTRSPETNGLLCGDPEENCAATTTQSKRKGHFSRCPKQYKHYCIKGRCRFVVAEQTPSCVCDEGYIGARCERVDLFY
notes: Betacellulin, human, recombinant; also called BTC; source: bought: R&D Systems (261-CE-010)

Assays:
[1] = target: T1, N-terminal NanoLuc-tagged EGFR (NLuc-EGFR) (human, UniProt P00533 25-1210); test: cell-based or functional assay
[2] = target: T1, N-terminal NanoLuc-tagged EGFR …; conditions: one partner purified
[3] = target: T1, N-terminal NanoLuc-tagged EGFR …; test: FRET or BRET; NanoBRET displacement of 3 nM EGF-AF488 by unlabelled EGFR ligands on living HEK293 cells expressing NLuc-EGFR; added simultaneously, 30 min at 37 °C; HBSS with 0.2% BSA; Ki from IC50 by Cheng-Prusoff; pKi is the negative log10; conditions: one partner purified

Row | Binder | pEC50 for enhancement of the specific binding of 12.5 nM Q86c-HL488 (conformational sensor nanobody) to NLuc-EGFR, NanoBRET on HEK293 cells [1] | pIC50 [2] | pKi [3]
1 | B1 | 9.2 | 8.8 | 8.43
2 | B2 | 9.17 | 9.02 | 8.45
